Assay [1] concerns the target T1, extracellular region of human PD-1 (human, UniProt Q15116 25-170).
T1 construct: also called extracellular domain of human PD-1
In words: method not given.

The target of assay [2] is T1, extracellular region of human PD-1. Briefly: method not given; lower end of the printed range 50-70 nM.

T1 sequence (Q15116 25-170 limits assumed): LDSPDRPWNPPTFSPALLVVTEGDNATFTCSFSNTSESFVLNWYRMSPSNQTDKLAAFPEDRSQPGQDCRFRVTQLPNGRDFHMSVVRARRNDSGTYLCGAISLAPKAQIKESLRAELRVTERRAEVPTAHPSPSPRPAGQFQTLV

B1: PD-1 agonist VHH (camelid PD-1 agonist VHH) (VHH)
VHH: EVQLVESGGALVQPGGSLRLSCAASGFTFSSYAMTWVRQAPGKGPEWVSAIASDGASTSYLDSVKGRFTVSRDNAKNTLYLQMNSLKPEDTAVYYCARGGYLTYDRYGQGTQVTVSS
notes: also called PD-1 VHH domain; PD-1 VHH antibody
By Kd is commonly meant a measure of binding affinity in units of concentration. Low values mean tighter binding, high ones weaker binding. In turn, B1 returned a binding half-life in assay [1] of 15 to 20 s. In assay [2], this molecule yielded a Kd of 50 to 70 nM.

These data come from patent publication US20250333513A1 (Immunocore, published 2025).
